From US20260286308A1, “COMPOSITION CONTAINING EXTRACELLULAR MATRIX AND MATRIX-BOUND VESICLES FOR PRODUCING EXTRACELLULAR MATRIX AND PREPARATION METHOD THEREFOR” (HLB CELL CO., LTD, priority 2023, published 2026) come the findings set out here.

For assay [1], the system named is Human fibroblasts. Briefly: Total collagen content in cell culture of single-cultured human fibroblasts (Sirius Red kit, absorbance 530 nm). As to conditions: 10 ng/mL epidermal growth factor added alone (Table 3 No. 2); FIG. 17.
Method: To measure the human collagen content in the extracellular matrix present in a culture obtained according to each example described below, quantitative analysis was conducted by utilizing a commercially available Sirius Red kit (Chondrex, #9062). The analysis method followed the manufacturer's instructions. Specifically, Sirius Red solution was added to the culture, followed by incubation, and the precipitated collagen was then mixed with an acidic solution and quantitatively analyzed by measurement of absorbance at 530 nm.
Human fibroblasts were seeded at a density of 3×10^5 cells per 150-mm^2 culture dish. The cells were cultured in high-glucose Dulbecco's Modified Eagle's Medium (DMEM) supplemented with 10% fetal bovine serum and 1% penicillin for 7 days while a growth medium was exchanged every 2-3 days.
(§1) After being cultured according to Example 1.1.1, the cells were further cultured from day 8 using a serum-free/xeno-free culture medium [Dulbecco's Modified Eagle Medium: Ham's F-12 (1:1) supplemented with 100 (DMEM/F12) U/mL penicillin/streptomycin, 2 mM L-alanyl-L-glutamine, 5 μg/L selenium, 50 M ascorbate-2-phosphate, 10 mg/L insulin, 1 μM hydrocortisone, 0.02 nM triiodothyronine, 1 μM isoprenaline, and 10 μg/L epidermal growth factor] while the medium was exchanged at intervals of 2 to 3 days. […] The cell culture after collection was analyzed according to Example 3. […]
Assay [2] has as its system Human fibroblasts. As to the kind of experiment: Laminin content in cell culture of single-cultured human fibroblasts (anti-human laminin antibody plate kit, absorbance 450 nm). As to conditions: 10 ng/mL epidermal growth factor added alone (Table 3 No. 2); FIG. 16.
Method: To measure the amount of human laminin component in the extracellular matrix present in a culture obtained according to each example described below, quantitative analysis was conducted by using a commercially available analysis kit (TakaRa, MK107). The analysis method followed the manufacturer's instructions. Specifically, the culture was added onto a 96-well plate coated with an anti-human laminin antibody, followed by incubation. Thereafter, residues were washed off, and a chromogenic enzyme-conjugated specific antibody was added, followed by incubation. Then, quantitative analysis was conducted by measurement of the absorbance at 450 nm.
Human fibroblasts were seeded at a density of 3×10^5 cells per 150-mm^2 culture dish. […]
as §1
Assay [3] deals with Human fibroblasts. Here is the method: The analysis method followed the manufacturer's instructions.
Culture media each lacking an individual factor were prepared, and then culture was performed according to Example 1.1.
Then, culture was performed according to Example 1.1.

B1: epidermal growth factor: growth factor / ErbB signaling factor added to the serum-free/xeno-free culture medium (protein, UniProt P01133 23-1207, looked up)
Pro-epidermal growth factor: PQHWSCPEGTLAGNGNSTCVGPAPFLIFSHGNSIFRIDTEGTNYEQLVVDAGVSVIMDFHYNEKRIYWVDLERQLLQRVFLNGSRQERVCNIEKNVSGMAINWINEEVIWSNQQEGIITVTDMKGNNSHILLSALKYPANVAVDPVERFIFWSSEVAGSLYRADLDGVGVKALLETSEKITAVSLDVLDKRLFWIQYNREGSNSLICSCDYDGGSVHISKHPTQHNLFAMSLFGDRIFYSTWKMKTIWIANKHTGKDMVRINLHSSFVPLGELKVVHPLAQPKAEDDTWEPEQKLCKLRKGNCSSTVCGQDLQSHLCMCAEGYALSRDRKYCEDVNECAFWNHGCTLGCKNTPGSYYCTCPVGFVLLPDGKRCHQLVSCPRNVSECSHDCVLTSEGPLCFCPEGSVLERDGKTCSGCSSPDNGGCSQLCVPLSPVSWECDCFPGYDLQLDEKSCAASGPQPFLLFANSQDIRHMHFDGTDYGTLLSQQMGMVYALDHDPVENKIYFAHTALKWIERANMDGSQRERLIEEGVDVPEGLAVDWIGRRFYWTDRGKSLIGRSDLNGKRSKIITKENISQPRGIAVHPMAKRLFWTDTGINPRIESSSLQGLGRLVIASSDLIWPSGITIDFLTDKLYWCDAKQSVIEMANLDGSKRRRLTQNDVGHPFAVAVFEDYVWFSDWAMPSVMRVNKRTGKDRVRLQGSMLKPSSLVVVHPLAKPGADPCLYQNGGCEHICKKRLGTAWCSCREGFMKASDGKTCLALDGHQLLAGGEVDLKNQVTPLDILSKTRVSEDNITESQHMLVAEIMVSDQDDCAPVGCSMYARCISEGEDATCQCLKGFAGDGKLCSDIDECEMGVPVCPPASSKCINTEGGYVCRCSEGYQGDGIHCLDIDECQLGEHSCGENASCTNTEGGYTCMCAGRLSEPGLICPDSTPPPHLREDDHHYSVRNSDSECPLSHDGYCLHDGVCMYIEALDKYACNCVVGYIGERCQYRDLKWWELRHAGHGQQQKVIVVAVCVVVLVMLLLLSLWGAHYYRTQKLLSKNPKNPYEESSRDVRSRRPADTEDGMSSCPQPWFVVIKEHQDLKNGGQPVAGEDGQAADGSMQPTSWRQEPQLCGMGTEQGCWIPVSSDKGSCPQVMERSFHMPSYGTQTLEGGVEKPHSLLSANPLWQQRALDPPHQMELTQ
modifications: Pro-epidermal growth factor
Molecule B1 showed a total collagen concentration in assay [1] of 56.94 µg/mL. Moreover, the laminin concentration in assay [2] was 2.68 µg/mL. Also, the “amount of extracellular matrix produced, compared among growth factor groups” value in assay [3] (10 ng/mL epidermal growth factor added alone, compared with FGF-2, KGF and combinations (Table 3)) is listed as “highest amount”. In assay [3] (factor individually removed from serum-free/xeno-free culture medium (Table 1), compared with medium containing all factors, FIGS. 8 and 9), the “amount of extracellular matrix produced” value is “significantly reduced”.
